Results reported in the supplement of paper PMC10126150.
± gives the standard deviation of the averaged measurements.

Tested on: ATP
Experiment: switch fluorescence ratio, 500 uM ATP over buffer (Cy3 cluster intensity, sum of 5 cycles each) (fold (ratio)); higher = stronger signal-on switching upon ATP binding; sequences stand for … in TCGTCGGCAGCGTCAGATGTGTATAAGAGACAGTTTTTTTTTTTTTTTTTTTTTTTTT…TC
Conditions: aptamer strand: ATP DNA aptamer (quencher-CACCTGGGGGAGTATTGCGGAGGAAGG + anchor), 100 nM annealed; ATP concentration: 500 uM
Procedure, shortened: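 Per cluster, summed Cy3 intensity from the target cycles was divided by that from the buffer cycles to give the fluorescence ratio, then averaged per switch-domain sequence. Clusters outside 100-1000 RFU were excluded. The Cy3-labelled switching-strand clusters, on a modified Illumina MiSeq flow-cell, were annealed to 100 nM quencher-labelled ATP aptamer and imaged in selection buffer, then after 15 min with 500 uM ATP at 22 °C, for five cycles with NaOH stripping and re-annealing between them.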
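Note: ATP exposure 15 min at 22 °C before imaging.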

Sequence	switch fluorescence ratio
GAAGTGCGGA	0.9795 ± 0.0061
CCAGGCTAAT	1.03 ± 0.014
TTAACTGGGA	0.998 ± 0.026
GATGCGTGCT	0.993 ± 0.055
TGATTCTTGA	1.03 ± 0.064
GGAGAGGGAG	0.9883 ± 0.0015
TGGGAAATAG	0.9957 ± 0.0041
GGGCCATGGA	1.05 ± 0.099
AGCATCACTT	1.04 ± 0.029
TATTTTTAGC	1 ± 0.03
GGGGGTCCTC	1.001 ± 0.01
TTGGGAGCGT	1.01 ± 0.017
TTATTGTGTT	1.01 ± 0.028
TAAAATTGTT	0.991 ± 0.052
AGACGAGGTA	1.03 ± 0.05
CGTATTATAA	1.01 ± 0.023
AGTTGGTTTT	1.02 ± 0.033
ATTATAAAAG	0.989 ± 0.012
GGGCGGCCGT	1.02 ± 0.044
TGGAATAGGG	0.992 ± 0.011
TTAATTGTGT	0.993 ± 0.0095
TCCTGATTAT	0.989 ± 0.011

Sequence	switch fluorescence ratio
AGGGTGGGGC	1.03 ± 0.065
GGGTGGCAGG	1.01 ± 0.013
TGCTTTTATT	1 ± 0.022
TTTTTTACGT	1.043 ± 0.0092
AACTCGGTCC	1 ± 0.061
AAAATGGAAG	0.9997 ± 0.0056
AAATGTGGCG	1.03 ± 0.011
TATCAGAGGG	1.02 ± 0.023
CGCAGCCCAG	1.58 ± 0.086
ATGTGTCGTC	1.01 ± 0.057
GCAGTTGCTG	0.999 ± 0.02
GAGAACGGTG	1 ± 0.032
GTGACGATGT	1.01 ± 0.0071
GCGTTTAAAG	0.994 ± 0.023
CTGGTTATCG	0.9998 ± 0.0032
GGAGAAGTCC	1.03 ± 0.093
TTGGTACATT	0.99163 ± 8.4e-05
AGGTTAAAGG	1 ± 0.016
TTGTATGTGT	0.983 ± 0.032
TTTTTCCACG	1.03 ± 0.018
CGGTTAAACG	0.975 ± 0.019
CGTTTGGACA	0.9893 ± 0.0051

Sequence	switch fluorescence ratio
AACCCGGGAA	0.995 ± 0.042
TCAGGTGAAT	1.32 ± 0.065
GCTTTGGATG	0.968 ± 0.05
GGGGCGTTGG	0.993 ± 0.033
TATATCATTG	0.965 ± 0.011
GAAATGTATT	1.04 ± 0.063
ACGCTTTTTT	1.01 ± 0.024
TCTTGTATGG	0.9906 ± 0.006
ACCAGGGGGA	1.01 ± 0.023
AGCTGTGTGG	1.01 ± 0.012
AATTCCTATG	1.04 ± 0.05
TATGTAAACA	1 ± 0.025
GTTACCAGGT	1.16 ± 0.097
GGTGAACGTG	0.97 ± 0.041
GGTTAGCGTC	1.03 ± 0.059
GTTGAGGGGT	0.993 ± 0.027
TCATTGAGGA	0.992 ± 0.014
GTGATACAAA	0.999 ± 0.022
CAGGTAATAG	1.17 ± 0.028
GGTGACTATT	0.979 ± 0.037
GGGTTGGGTG	1.01 ± 0.042
TAGGGCAGTA	0.99 ± 0.046

Sequence	switch fluorescence ratio
GTATTTGGGC	0.994 ± 0.012
GAAATCCAGG	1.297 ± 0.0087
TCGTTCGCGG	1.12 ± 0.015
AAAATATTTT	0.981 ± 0.027
TGGGAATATC	1.05 ± 0.028
ATGAGTTTTC	1.024 ± 0.0043
AGACCTAGAC	1.05 ± 0.025
CTAAAAACGG	1.002 ± 0.01
GGTTGTAAAA	0.9867 ± 0.0092
ACGAATCCTT	1.04 ± 0.013
GTAACATGGG	0.973 ± 0.021
TATTTTTTA	1.019 ± 0.0089
ATTCTGACAC	1.07 ± 0.028
GCAAGTGGTG	1.02 ± 0.03
CATCTCATAT	1.02 ± 0.028
ATCTTAATTG	1.005 ± 0.0075
GTGTTTTCAG	0.988 ± 0.03
TTCAGTAGAT	0.951 ± 0.032
ATTAAAATGG	1.02 ± 0.017
